This is an account of results in patent US20220339270A1.

Test [1] addresses Phospho_Tau441 (Tau441 phosphorylated in vitro by DYRK1A) (human), P10636. Description: ELISA, PT3 immobilized, tau protein applied at 333 ng/mL. Particulars: remark: other sources report otherwise.
For test [2], the target named is Tau441 (recombinant, not phosphorylated) (human), P10636. The test is described as above. Particulars: remark: other sources report otherwise.
Tau441 (recombinant, not phosphorylated) (human), P10636, sequence (P10636 other isoform, or with tags, fused parts or gaps limits assumed): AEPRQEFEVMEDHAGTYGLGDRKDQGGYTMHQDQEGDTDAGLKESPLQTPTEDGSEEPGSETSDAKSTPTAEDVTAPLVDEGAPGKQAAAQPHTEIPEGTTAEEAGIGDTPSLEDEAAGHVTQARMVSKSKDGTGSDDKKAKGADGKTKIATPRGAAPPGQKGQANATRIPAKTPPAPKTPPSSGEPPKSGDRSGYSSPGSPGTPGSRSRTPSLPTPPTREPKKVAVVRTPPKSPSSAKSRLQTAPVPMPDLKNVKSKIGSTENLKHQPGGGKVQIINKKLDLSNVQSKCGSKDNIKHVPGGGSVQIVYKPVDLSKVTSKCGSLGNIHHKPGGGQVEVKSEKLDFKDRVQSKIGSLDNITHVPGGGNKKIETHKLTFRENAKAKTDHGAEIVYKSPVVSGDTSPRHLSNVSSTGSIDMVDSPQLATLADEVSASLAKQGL

Phospho_Tau441 (Tau441 phosphorylated in vitro by DYRK1A) (human), P10636, sequence (P10636 other isoform, or with tags, fused parts or gaps limits assumed): as above

B1: anti-tau antibody PT3 (antibody, V domains shown)
VH: EVKLVESGGDLVKPGGSLKLSCAASGFTFSSYAMSWVRQNPEKRLEWVASISKGGNTYYPNSVKGRFTISRDNARNILYLQMSSLRSEDTALYYCARGWGDYGWFAYWGQVTLVTVSA
VL: DIKMTQSPSSMYASLGERVTITCKASQDINRYLNWFQQKPGKSPKTLIYRANRLLDGVPSRFSGSGSGQDYSLTISSLDYEDMGIYYCLQYDEFPLTFGDGTKLELK
As to B1, the OD450-570 in test [1] amounted to 0.5; in test [2], 0.
